Reference: patent US20170002051A1

How the values were obtained:
[1] = biological target: chicken CSF1R (chicken); experiment: cell-based or functional assay
[2] = biological target: porcine CSF1R (porcine) (UniProt K9IVS4); experiment: cell-based or functional assay

| Substance | survival/proliferation of BaF/3 cells expressing chicken CSF1R (Cell TiterGlo), EC50 [1] [µg/mL] | survival/proliferation of BaF/3 cells expressing porcine CSF1R (Cell TiterGlo), EC50 [2] [µg/mL] |
| --- | --- | --- |
| recombinant chicken CSF1 (active fragment of chicken CSF-1, expressed in E. coli from pTLW54, refolded) (ligand) | 0.02 | – |
| recombinant human CSF1 (Sigma 6518) (from UniProt P09603 33-190) (ligand) | – | 0.03 |
| recombinant porcine CSF1 (from UniProt A0A287BPE2 36-189) (ligand) | – | 0.03 |
